In paper PMC2919415, “Integrating Ion Mobility Mass Spectrometry with Molecular Modelling to Determine the Architecture of Multiprotein Complexes” (PLoS ONE, 2010):
Where “and” joins values, the source holds several entries; their conditions need not be identical. Equal values may be shown once.

Columns and labels:
[1] = target: the molecule itself; test: native MS; nano-electrospray ion mobility-MS (Synapt HDMS) of γ alone; 0.1 M NH4OAc pH 6.9
[2] = target: T1, δ′ subunit of the γ complex (clamp loader), E. coli (E. coli, UniProt P28631 1-334); test: native MS; nano-electrospray ion mobility-MS (Synapt HDMS) of γδ′ subcomplexes; γ and δ′ mixed 3:2, then exchanged into 0.1 M NH4OAc; details: both partners purified
T1 construct: δ′ subunit of the E. coli clamp loader (γ complex); source: overexpressed in E. coli and purified as described [45-48]

[3] = target: the molecule itself; test: as above

stoichiometry N [2]: 2 γ per δ′ and 3 γ per δ′
B1: γ subunit of the γ complex (clamp loader), E. coli (natural protein, UniProt P06710-2 1-431, looked up)
chain: MSYQVLARKWRPQTFADVVGQEHVLTALANGLSLGRIHHAYLFSGTRGVGKTSIARLLAKGLNCETGITATPCGVCDNCREIEQGRFVDLIEIDAASRTKVEDTRDLLDNVQYAPARGRFKVYLIDEVHMLSRHSFNALLKTLEEPPEHVKFLLATTDPQKLPVTILSRCLQFHLKALDVEQIRHQLEHILNEEHIAHEPRALQLLARAAEGSLRDALSLTDQAIASGDGQVSTQAVSAMLGTLDDDQALSLVEAMVEANGERVMALINEAAARGIEWEALLVEMLGLLHRIAMVQLSPAALGNDMAAIELRMRELARTIPPTDIQLYYQTLLIGRKELPYAPDRRMGVEMTLLRALAFHPRMPLPEPEVPRQSFAPVAPTAVMTPTQVPPQPQSAPQQAPTVPLPETTSQVLAARQQLQRVQGATKAKKE
notes: γ subunit of the E. coli clamp loader (γ complex); the legend speaks of the full length γ subunit against the truncated γ of the crystal structure; also called γ2; γ3; source: overexpressed in E. coli and purified as described [45-48]
stoichiometry N [1]: 4 | stoichiometry N [3]: 2 and 3
